{"source": "the DeepSol protein solubility set"}
{"test": "soluble on expression in E. coli; label from the status in PepcDB or PDB records"}
{"sequence": "MKKAGKKNSDAGKTFILISSSCSSCQKAIEFFDQNKISYVVENFYKKPISDKRFKDILSLSEDGTESLFSKRADQIKATNSVSVEELSISELIKLVRERPSLLRRPIIIQYNSSGIPKRMRIGYNSSEIKVFERKLIEPKPIIQQ", "soluble on expression in E. coli": "soluble"}
{"sequence": "YAEIRARLYLMTGQTNKALNELRRLCNRFPEVNEFRLKYAGTLLDSEKYDEAYEQLQLIARTDSTSGLYHFAMASYYLGTNEKEAAINEMIKVAADKDVAPEQKLPIILRFIGTDTDEEDAPKKEYNILLEKILASHPTEVDARLFYAELLEMQGDSIHAMEVCRPITEFAPKEERAWKFMLGRAVTGQNHTEVHRISEQARQYLPGVPLFYLYDAISYYIEKKGSEAKHILQEALEHIDAEKDPNGLSDIYSQLGDLAYEENKPEEAFANYEKALELNPRNVGVLNNYAYFLAKEGGDLAKAERMAAQCVKLLPDNAVSLDTYGWVFFLRENYTLAKLYIEKALGLAADNPDADVVEHHGDVLYMLGEKEKAMLEWKRAKEIGGGGSPMLDKKIEQGKYIPEKKK", "soluble on expression in E. coli": "not soluble"}
{"sequence": "QAAELEITVTNATKGIYFTPLIVAAHDSDLHMFKVGESATAELEAMAEGGDISGLSTVIGNAGGAVVENPAGGILNPGAATTFTLDSGDHG", "soluble on expression in E. coli": "not soluble"}
{"sequence": "MGSDKIHHHHHHMPLMPTTLCSHAGCNARAVGNGVCRIHKPKAKRQAPNQIKQAEPAKLKRIDHRLSASQRGYDVRWRSARLLFLNDEPLCRHCITQDITKGADVVDHILPHRGNQELFWDQTNWQPLCYPCHSIKTTTVDNKLSDYDIAQLRQGGWGKK", "soluble on expression in E. coli": "not soluble"}
{"sequence": "MLMLRSPFSDSNVLDHFLDEITGSVQFPYWRNADHNSFNFSDNIGEIVNDESKFSVQLDVSHFKPEDLKIELDGRELKIEGIQEKKSEHGYSKRSFSKMILLPEDVDLTSVKSAISNEGKLQIEAPKKTNSSRSIPINFVAKH", "soluble on expression in E. coli": "not soluble"}
{"sequence": "MGSDKIHHHHHHMQGIAFQDAYPDDLSHCYGCGRNNEQGHQLKSYWRGEQTIAHFMPKPFHTAIPGFVYGGLIASLIDCHGTGSASAAAQRALEQAGEQLDEPPRFVTAALNIDYLAPTPMGVELELVGEIKEVKPRKVVVEIALSADGKLCARGHMVAVKMPETMAATSA", "soluble on expression in E. coli": "not soluble"}
{"sequence": "GSHMQPMQAMKIERGTILTQPGVFGVFTMFKLRPDWNKVPAMERKGAAEEVKKLIEKHKDNVLVDLYLTRGLETNSDFFFRINAYDLAKAQTFMREFRSTTIGKNADVFETLVGVTKPLNYISKDKSPGLNAGLSSATYSGPAPRYVIVIPVKKNAEWWNMSPEERLKEMEVHTTPTLAYLVNVKRKLYHSTGLDDTDFITYFETDDLTAFNNLMLSLAQVKENKFHVRWGSPTTLGTIHSPEDVIKALAD", "soluble on expression in E. coli": "soluble"}
{"sequence": "MADDPHVLAFLARVHQGRRDRVEDHLHEHFIRERNLHQRPQFPPLQLVPVQAEHEYEHPFPLVDVFKFSLQGDSVKTASSSWQGLQWKVKCSIYNLPGELLATRVSVDFFNLMDRVFKATVKYEMNEKFAAANEFAEVVIDSNHSTIVFPETGAFAPGRLVDGMLPTEIAVKIKLEHAEIVDQFSYNNQSWVMGTRWVRYGDECSVRMNFDVLKNLNPCHDKFFDDLREQVLSPKEARAFFDFASAIFNRSFMGLDLFHESVRNGLKFGFTTNWDSLNTVDSEFDFNSRTAFPGYQNVLYEQPSELTSISNRETAGMCQIFKLNLDPSDVTTRFQVASMNNVKSHTSQFTFYLENSPNGYLLIAGGCFQMESRQLVNLKLTLFDSGVSCRNIQTFRILHKEQSTIKVVIALLDDDKMEKMSRGKLLLNFQMHMNGTISNVVRNFEDQTKRIGDFAMPGLVTGYINCRDKKRIGVCKEHLANNSEHLNMLFFNTVFEDCGKNEITVNEDSDIVLDALDIIYHRSLAIFPAQINRVLDLAGYWLSATMHRFMEIAILHSTHISDSAKLELAAEHHFDIIKYVARHPRYASTYHLSLTDEEIMQVRIPADNEVDGGTGGRPRRVEDLMDLEEQQE", "soluble on expression in E. coli": "not soluble"}
{"sequence": "MRRLLLLVILFGCMSVINLAAGCNAQICTCPGGGYVTYGQYCPVNTPSYSAPPDAPPVDMYYFILDIKNNSYQLVDLKTKNFLTALDRSLSCDRSTQVCTVVSIREYLAVVVSEDNRLFIGKADAFYKGTGKKAEKAAIDDCKKGKEANGNGVMGDGIKGKKCRLIRLFSPNFKLENIETKQKYDLKVTGSL", "soluble on expression in E. coli": "not soluble"}
{"sequence": "MSLKYLVIGSNSFTGASMVSYLLDQGADVVGISRSDEPHPAFLPYRWKKADRFRFQKLDLNHDLDAIMQLVTAERFPCIINFAAQSMVGESWANPDHWFMTNVVSTVRLHERLRICDFLERYVHVTTPEVYGNATGTLTEDAVFDPSTPYAVSRAAGDMSLRSYFRAYGFPVLFTRAANVYGPGQRLYRIVPRTILFIKLGRKLQLHGGGTSERSFIHAADVADATRRIACNGKLGDSYHISTDRIVTIRALVEMICAMMRVRFEDQVEIVGERLGKDAAYKLDSSKLRSELGWSDQITLEQGIEQTIAWIDRWFEELKSQPFDYAHKEGHHHHHH", "soluble on expression in E. coli": "not soluble"}
{"sequence": "MGSDKIHHHHHHMKSVSVRSCKTYNYEEVKLSIEKNLEDIGGIDKFVKKGSKVLIKPNLLMKKKPEEATTTHPMVVKVVCEKLLELNCDITIADSPGGPYNQSSLKSIYKASGIEEVANELGIKLNYDVSDVKIHSEKAHVLKYMDIIKPIVDSDYIINLCKLKTHIMATFTGGTKNLYGCIAGLKKAEIHYRFPTEELFCENVLLDICDYIKPTLTIMDGIVGMEGDGPSAGTTREIGVLLASQNPYAIDVVACKIISLLPNRVATIRGAIKRGYIQEDFSDIEILGEDIKDLIIKNYKIPNVSKDLRLFSVKLPKFLNEPISKLITPKPVVRFQDCIKCGKCKEACPASTIEIGTKGAIIDLSKCIRCYCCHELCPKKAIDVKRNFVFKYVK", "soluble on expression in E. coli": "not soluble"}
{"sequence": "SPAKTPIYLKSNYSKKGKKCRLRDILSPDMISPPLGDFRHTIHIGKGGECDAFGDMSFLQGNFELLPGKGGRVRPQYGLHGEFTRANSASDASYVETPSPVLKNAISLPTIGGSQALTLPMISTTVFPMTHDNMSEPSTPPAGSEDLEILQMETLLQSISIFRSDPSPVPEEDEPMIDRMEMNEKSCMKKMHSSEKELETFLSVFVNGNGDANGNFNNGNNGDSVFQYEQDMFSIKGDWADRDSGVEEGRLCDSDFEISKSKSQSQESLPQITGSLFSLELDLGPSILDDVLNIMNKPVS", "soluble on expression in E. coli": "soluble"}
{"sequence": "AGIKVFGHPASIATRRVLIALHEKNLDFELVHVELKDGEHKKEPFLSRNPFGQVPAFEDGDLKLFESRAITQYIAHRYENQGTNLLQTDSKNISQYAIMAIGMQVEDHQFDPVASKLAFEQIFKSIYGLTTDEAVVAEEEAKLAKVLDVYEARLKEFKYLAGETFTLTDLHHIPAIQYLLGTPTKKLFTERPRVNEWVAEITKRPASEKVQ", "soluble on expression in E. coli": "soluble"}
{"sequence": "MAHHHHHHMGTLEAQTQGPGSMNAAVIDSHSAQDYVVADIALAGWGRKELNIAETEMPGLVQIRDEYKAQQPLKGARIAGSLHMTIQTGVLIETLKALGADVRWASCNIFSTQDHAAAAIVEAGTPVFAFKGESLDEYWEFSHRIFEWPNGEFANMILDDGGDATLLLILGSKAEKDRSVIARPTNEEEVALFKSIERHLEIDGSWYSKRLAHIKGVTEETTTGVHRLYQMEKDGRLPFPAFNVNDSVTKSKFDNLYGCRESLVDGIKRATDVMIAGKIAVVAGYGDVGKGCAQSLRGLGATVWVTEIDPICALQAAMEGYRVVTMEYAADKADIFVTATGNYHVINHDHMKAMRHNAIVCNIGHFDSEIDVASTRQYQWENIKPQVDHIIFPDGKRVILLAEGRLVNLGCATGHPSFVMSNSFTNQTLAQIELFTRGGEYANKVYVLPKHLDEKVARLHLARIGAQLSELSDDQAAYIGVSKAGPFKPDHYRY", "soluble on expression in E. coli": "soluble"}
{"sequence": "HGDHMHNHDTKMDTMSKDMMSMEKIVVPVQQLDPQNGNKDVGTVEITESAYGLVFTPKLHDLAHGLHGFHIHEKPSCEPKEKDGKLVAGLGAGGHWDPKQTQKHGYPWSDDAHMGDLPALFVMHDGSATTPVLAPRLKKLAEVKGHSLMIHAGGDNHSDHPAPLGGGGPRMACGVIK", "soluble on expression in E. coli": "soluble"}
{"sequence": "MSLKRSEFPENELWDLTALYKDRQDFLLAIEKALEDIKVFKKNYEGKLNCVEDFTSALMEIEHIYIQMSHIDTYAFMPQTTDFSNEEFAQISQAGSDFATKANVLLSFFNTALANADIKILDSLENNPHFKATIRQAKIQKQHLLSPEVEKALTNLNEVLNTPYDIYTKMRAGDFDMEDFEVDGKTYKNSFVTYENYFQNHENAEIREKSFRSFSKGLRKHQNAAAAAYLAKVKSEKLIADMRGYDSVFDYLLSEQEVDRSMFDRQIDLIMDEFGPVAQRFLKHIADVNGIEKMTFADWKLDIDNELNPEVSINDAYDLVMKSVAPLGKEYSQEVERYQKERWVDFAANANKDSGGYAADPYKVHPYVLMSWTGRMSDVYTLIHEIGHSGQFIFSDNHQSFFNTHMSTYYVEAPSTFNELLLSDYLENQFDTARQKRFALAHRLTDTYFHNFITHLLEAAFQRKVYTLIEEGGTFGAEQLNAIMKEVLTQFWGDAIEIDDDAALTWMRQAHYYMGLYSYTYSAGLVISTAGYLNLKNNPNGAKEWLAFLKSGGSRTPLETALLISADISTDKPLRDTINFLSNTVDQIINYSNLIEQEGHHHHHH", "soluble on expression in E. coli": "soluble"}
{"sequence": "MSIEVIAVRLTKGMDLKLSLAKLVAEHDIKAGSIASCVGCISDLNLRLAGAESTLTKREPFEIVSVMGTLTPEHQHVHISVSDREGRVWGGHLLEGTVIDTTAELIIHSYSELEFTRAMDDSTGYTELQVNPSKLEHHHHHH", "soluble on expression in E. coli": "not soluble"}
{"sequence": "MGSDKIHHHHHHMREVFQRLKQAILEKQDTMLLTIGTSSGSTPRSQGARMLVSAEGRIAGTVGGGAVEFQAEQVAKKLVLEKENAQRQFILAPNNIADLGMVCGGNVTIFFHYLSWETPFLKELCESIETHFQNNQQGWLVTELDQNNLGKVSFYSETGELIGSTSWEGELSLLPKGIHCEQKEDIIFLTEAILQVGKVYIFGSGHVARALVPILNYLSFYCVVVDDRPEFLTAQAFPQAEELRVIPLENLAAFIEITADDYGIVITRGHNFDFIVAKQLLETPAKYIGVMGSKHKIASQVRRLKEVGYTMTEIERIFMPIGLDIAAETPEELAISIAGELIQQRYQ", "soluble on expression in E. coli": "not soluble"}
{"sequence": "MGSDKIHHHHHHMASYHLNAKMAQDIVSRTMQIIDSNINVMDARGKIIGSGDQERLGELHEGALLALSQGRVVDIDDAVARHLHGVRPGINLPLRIDGEIVGVIGLTGNPSQLRQYGELVCMTAEMMLEQARLLHMLAQDSRLREELVLNLVRTDDLSPALMEWAQRLGIDMNKPRVAAVIEVDSGQLGVDSAMAELQQLQTLLTTPERDNLIAIVSLTEMVVLKPALNSHGRWDAEEHRRRVDTLMSRMAESSRLRVRLALGNYFAGPGSIARSYRTARTTMSVGKQRMPAQRCYYYQDLMLPVLLDSLRGGWQANELVRPLSKLKAMDGNGLLRRTLGAWFRNNVQPGATAKALFIHRNTLEYRLNRISELTGLDLGNFDDRLLLYVALQLDEEE", "soluble on expression in E. coli": "not soluble"}
{"sequence": "PGGPEEQWQRAIHERGEAVCPTCNVVTRKTLVGLKKHMEVCQKLQDALKCQHCRKQFKSKAGLNYHTMAEHSAKPSDAEASEGGE", "soluble on expression in E. coli": "soluble"}
{"sequence": "MGSDKIHHHHHHMSFSGFEQFIGLVANRYGKPGTPHSEEQHSDYEAGTVLLGSETWHIRTARVTPTKPGAFVAFWMRNEQGEICPFDSSEACAGLLIFVQDESNFGVFRFTREQLEQQGITRSTKRPGKRGFRVYPSWSGNLNAQAKKTQAIQTPSFELLQ", "soluble on expression in E. coli": "not soluble"}
{"sequence": "MKIGIIGAMQQEVAILKDLIEDVQEVNQAGCTFYSGQIQGVDVVLLQSGIGKVSAALGTALLISQYAPDVVINTGSAGGFDASLNVGDVVISSEVRHHDADVTAFGYEIGQMAGQPAAFKADEKLMTVAEQALAQLPNTHAVRGLICTGDAFVCTAERQQFIRQHFPSVVAVEMEASAIAQTCHQFKVPFVVVRAISDVADKESPLSFEEFLPLAAKSSSAMVLKMVELLK", "soluble on expression in E. coli": "soluble"}
